In US9192622B2, “MicroRNA-130a,b as a tumor suppressor and sensitizing agent for chemotherapy” (University of Houston, priority 2011, dated 2015):

How the values were obtained:
HeyA8 cells = experiment: Cisplatin dose-response, MTS viability with or without miR-130b; type: cell-based, human; conditions: 72 hours
Procedure: FIGS. 4A-4B: Impact of miR-130b on Cisplatin Dose-Response Curves. Cisplatin treated HeyA8 cells with either miR-130b or a negative control proliferation and apoptosis assays were measured 72 hours following treatment with cisplatin at the indicated concentrations. The assays were measured using MTS (FIG. 4A) and Caspase-Glo 3/7 (FIG. 4B) assays. The IC50 (concentration needed to reach 50% viability) values are shown beside the MTA graph. To assess the impact of miR-130b on cisplatin treatment, HEYA8 cells transfected with pmiR-130b, Negative control or nothing at a density of 2500 cells/well. Cells were treated with cisplatin across a range of concentrations from 0-10 μg/mL. After 72 hours, cells were assayed for growth and apoptosis activity using MTS and Caspase 3/7 assays from Promega as described before. Each sample was normalized to the parental non treated sample. Refractory disease that results from resistance to chemotherapy is a major problem for many ovarian cancer patients. The chemotherapy drug, cisplatin, works by intercalating the genomic DNA of tumor cells causing massive DNA damage that in turn causes the cells to undergo apoptosis or programmed cell […] et al. 2003). […] Seventy-two hours following cisplatin treatment, proliferation and caspase activity were measured using the same MTS and Caspase 3/7 assays used previously.

[1] = tested on: p63/p53/p73 network genes in HeyA8 cells; experiment: qPCR gene expression after p53 siRNA with and without miR-130b; type: cell-based, human; conditions: HeyA8, siRNA to p53, 72 hrs post-transfection
Description: FIGS. 6A-6B: Impact of siRNA against p53 on miR-130b-regulated patterns of gene expression. Since many of the up regulated genes that were induced by miR-130b were also downstream transcriptional targets of p53, transient, siRNA knockdown of p53 was used with and without miR-130b present in HeyA8 (FIG. 6A) and OVCAR8 (FIG. 6B) cells and used qPCR to measure our gene set again with respect to p53. The goal was to dissect the p53-dependent and independent impacts of miR-130b in the p53-wild type HeyA8.
For gene expression analysis of target genes, 75 ng of total RNA from each sample was reverse transcribed using the qScript cDNA Super mix from Quanta Biosciences (95048). All RT-qPCR was carried out with the Veriti OneStep from Applied Biosystems. All qPCR experiments used the […] and Power SYBR Green Master Mix (Applied Biosystems). 18S was used as the endogenous control for all targets.
To determine the role of p53 in miR-130b gene regulation the HEYA and OVCAR8 cell lines were co-transfected with miR-130b and p53 siRNA (IDT_HSC.RNAI.N000546.12.2, 5′-rGrGrA rUrUrU rCrArU rCrUrC rUrUrG rUrArU rArUrGr A-3′, SEQ ID NO: 27), 5′-rUrCrA rUrCrA rUrArU rArCrA rArGrA rGrArU rGrArA rArUrC rCrUrC-3′, SEQ ID NO: 28) 72 hrs post-transfection gene expression was assayed by Q-PCR as described before.
To determine which of these gene expression changes are dependent on p53 patterns of gene expression in miR-130b over-expressing HeyA8 cells were compared in the presence of a siRNA to p53 (siP53).

For `N.N.[Cl][Pt][Cl]` [cisplatin], the “cisplatin IC50 (concentration needed to reach 50% viability)” value (HeyA8 cells; HeyA8 with miR-130b) was roughly 9.9 µg/mL and the “cisplatin IC50 (concentration needed to reach 50% viability)” value (HeyA8 cells; HeyA8 with negative miRNA control (NC)) was roughly 18.3 µg/mL.

B1: siP53: siRNA to p53 (SEQ ID NO: 27 and 28) (nucleic acid)
chain 1: RGRGRARURURURCRARURCRURCRURURGRURARURARURGR
chain 2: RURCRARURCRARURARURARCRARARGRARGRARURGRARARARURCRCRURC
modifications: listed as RNA, chemistry not fully specified
B1 was tested, and the MDM2 expression level [1] was “down-regulated”, the RB1 expression level [1] was “up-regulated” and the p21 expression level [1] was “down-regulated”. For the same molecule, the p53 expression level [1] was “down-regulated”.
